Results published in a protein production outcome set (Wang et al. 2014).

Assay: label from the status in PepcDB records
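Further: failed if final PepcDB status was selected cloned or expressed and not failed if soluble or beyond.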

Sequence	protein production
MSKPEFIARQGRKPTGWLGHIVARVMARETRPENDRALSFLDLADGDSLIDIGCGHGETLFQADRIVRLSGSVGVDFSEVMLKRARARNRDAVWDTRMAFHCADTAALPFPDKRFGKALSVHTIYFWPNPAAHLAEAFRVLRRGGRFLFCYRSTADRRAVEEFPDTVYRFPSVQEVEEKLKLVGFLGPETTTEDIKGRLTHWSIAEKPLEHHHHHH	not failed
MSGISSLGGRVGVTILEILIFSAGLLLLIKGSDIFVEAATRIAEAFKVSEFLIALVLASVATTLPEVTVSAISSYRGNSGIAIGNAVGSALANIALILAISAMIMPLNVDKIASENSLIMVGVTFYAWLLMSNGEISRIEGLTLVLIYAAFLYYLYRKHVKLEEVEKKSRCNVTRDVLILFLSGGMVILGAELVVDSAVKIARAIGIPEVVIGVTLVSIGTSLPEFANSLTATLKKIPNVSVGNIIGADILDILMVIGIASMIRPIRVDPSIVKIVMPITLLVMIILTVSLFRNNKIGRKTAVTLLIIYSAFIYLLTQGKVYIPG	failed
MTSRSDAGVFHVRALLLGVLYVCGSLLFVTSMLSKTTTLTNVSSNTCPTVRGVDQIIVLLVDALRPDFVLPALSPHYLDGVECSTVSARGVDGNVNGDRRSTLTYMEENLKRVAHPSHGFFFLSDTPTITAQRIKAITTGTTPAFLEVGTNLNTDEVQIDNILLQLRRRSILLGDDTWLNLFPDHQGNASFWKHTHALPPYNVSDFDTNDATVIADLMPLLLSETAEQAPDDYARLIIGHLLAVDHVGHRHHASHPAMYKKLSDINEMLRNVTKRLREERQTSMRTLLVVFGDHGMTNSGDHGGDSEGERDSFMYAELFESSRDSVHAPVNSSDKFQRKNNLTEKRWEDNIDEDLSRLKACRDVAGVHPGKLSAVHQVDLTPTLALLLGVPIPFSNVGRVIPEMVALSNPDVNMSASEECNWKQLTSYFDEAGLYIKPEWKDSNLSLRRRIAQMSHFARSIRMEIRRDGAFIGSSLCMVTALSLLRNGDIQQVICGRSVLGIGTLFLLVLRLLAVFANSFIIKESVEVFCLLQLLLIAALFVAPTKGGGRHASFLIVILLVLLRVAVPLVSRERSHITHTAEATSHLEMWLAKQFPEFHYNSVGIILGAALFVFSAPTMPHRLMGIVLGTVAAVCYGQPLIHHIGPFVFFALTFFFRGMGPLRYTALVLWSSSLCNDNYVASASIAVSGVLLPVVLTATRHLPVVPQALMLHLYMWVSFFAQGNQCLLNTVDLNASFVGLPFNSVALGSVFVLSRLCNAFLFAPIAVMITYGTDRARGWRVCYLLLYITLAQSAVSSFNGYIQKSHLMFFPIFCPKFIFDFCIGMAACIGYALAALLA	failed
MDALLTKFNEDRSLQDENLSQPRTRVRIVDDNLYNKSNPFQLCYKKRDYGSQYYHIYQYRLKTFRERVLKECDKRWDAGFTLNGQLVLKKDKVLDIQGNQPCWCVGSIYCEMKYKPNVLDEVINDTYGAPDLTKSYTDKEGGSDEIMLEDESGRVLLVGDFIRSTPFITGVVVGILGMEAEAGTFQVLDICYPTPLPQNPFPAPIATCPTRGKIALVSGLNLNNTSPDRLLRLEILREFLMGRINNKIDDISLIGRLLICGNSVDFDIKSVNKDELMISLTEFSKFLHNILPSISVDIMPGTNDPSDKSLPQQPFHKSLFDKSLESYFNGSNKEILNLVTNPYEFSYNGVDVLAVSGKNINDICKYVIPSNDNGESENKVEEGESNDFKDDIEHRLDLMECTMKWQNIAPTAPDTLWCYPYTDKDPFVLDKWPHVYIVANQPYFGTRVVEIGGKNIKIISVPEFSSTGMIILLDLETLEAETVKIDI	failed
MSLEILTAGPMLTVQDAGRFGLRHMGVSPAGPIDRAAMALANALVGNDPGAAALEFAGPAGRFRCDRPVRFAVAGADCPLRIDARTVSPGESHRLNPGETLTVGVPEGAVWAYLAFSGAIASPEVLGSRATHLRSGVGGRALGAGDRLPLGEDDPEAPCLRPGLRLEAAAPFRETGPIRLILGPQDDHFAPEVIARLTGCDFTVTPQRDRMAMVLGGVELPAERGHDIVSDGTVPGSVQVPGSGTPLVLLAESQTTGGYPKIGTVASVDLARLAQMPVGARFRFALISAREGEDLWIARQAR	failed
MLFLDSVAMKEKPEGREEYPFSVPAMRHLERLEFKTPITFFAGNNGSGKSTLLEGLAAGMTAYAIGNHGDVKGDLYLQHAETVAKAFYFARKKYPKIRMFLRAEDVLGYIRRQNENALDDFRWEREKALKKGEDFPEETPEIFRGIVRNNSLDRRSHGEGFLDIMHRRLHGAGLYFLDEPESPLSPQKQLELAAIIRQAADSGGQLIIATHSPVLLAIPEATIYYFDEDGITERLYDELENIAFLRRFLDRPSKYLDDLEHHHHHH	not failed
MAGKKVVITIGRQYGSGGADTGRRLAEELGFGFYDKNILRMNSDESGIKESYFHLADEKAGNKLLYKIISSLTPEKGAPSFGSDLISADNLFRFQSEVIRKLAAEESCVIIGRCANYVLDGMEGLLRVYLYADIEVREARIREKDLYDEKEVLKNIKRIDRERRDYHRYYTGRDWQELDNYDLVINTTHIGVDGAVAVIKNYLTVMGYDLEKDFH	not failed
MDESAALRAFQDALRTQRPEFGQFFLARLLGLDISYPDGQCLIVFEPQDFLFNPQGSLHGGIIATVMDISMGHLLNHVQGAGLTLEMKTQYLKAVRQGTVYCRGEFLQRGRSVSFLKSTLTDAQGEPLAMATSTWKALSPLEHHHHHH	not failed
MNRSVRLITIALLLAALASLTYAVVRPFLVSIGWAVFVSYVAWPLHAWSQRRFEGRKTLSALVTTALLGSVVLAPLIWLAVLLQGEVSELIRSLPDWLEQKPRLPDFVSHIPYFGNELQAVVDQFEDLHGLLKRHAPEWVRRLGSPVLGIMTTLVQNAAVLFMTLFTLFFLFRDGLQLATDVRRVFTRVLGERLKGYFATIEATVKAVLYGIVLTALAQGFLAGLGYWIVGVKAPIVLGIATTLIAMIPFGTPFAWGSVSIWLLLQGETWAGVSLALWGTLVISWIDNIIRPLVISSATHIPFVLVMFGVLGGLASFGFIGLVLGPVILAMALAVWREWLQQVREAGLRGEDGSGTGPGERR	failed
MVNFDCVIEELDEKTKEMLRVIDEDADSFAARAEMYYKKRPELIAMVEEFYRSHRSLAERYDLLRPSSVHKHGSDSESHEKSSTCDESSWSEACETHEEYAESEIDNGESKWVDESEIDGIVEEIEPSEVVYSEGNGNSEMMKIEIERLREENKVYSEMVREKDEEKREAIRQMSVAIQMLKEENSELKKRVTNTVVARRNKEGGDSQRKQQMWKPFEFKKIKLEGLWGKGFGNWALPNTDSTSKELMTL	failed
MILLSFNILVLYQNVQISLSSGICFRLYSEVLSYILIYVAVWLTLYGIDLLNTVYGASDSRSVSKSAVSKRTLAVLPCSSCRINKRCIENGHLQSATNKTSFVC	failed
MDPSRLLRTERERKAVMPPFSPGPLPIDPVLPALLEALASHGRAVLIAPPGAGKTTRVPPALLGALWLGGQKVVMLEPRRLATRAAARRMAFEAGEAVGQRFGFRVRGESRSGPLTRVEVMTEGILTRRIQDDPELAGVGCVILDEFHERGLQGDLAFALLREIQGALRPDLRLLVMSATLDGAAIAALMDDAPVIESHGRAFPVTITHGERPAARDLGPAMARTILRALEDEPGSVLAFLPGEREIAAVAGALARALPADTVLRPLYGALPPAEQDAAISPCPPGQRKVVLATDIAETSLTIEGVRIVVDSGLRRSPRFDPQTGLSRLDTVRISQAGAEQRRGRAGRLEPGVCLRLWPEAEHRALPAQETPEILAADLAPLALELARWGARDAAALCWPTPPPPGPLAQARDLLTSLGALEPAGGLSAHGAAMAALPLHPRLAHMVLAAKADGADDGALACLLAALLAERDILRPGPGAARDRDLTTRLEILIGQGRRAPAGQILRQPTLGAVRDEAARLRQLAGIAASASPEPARCGRVLARAYPDRIAQARPGQPGRFLLSSGRGALIDVGDPLAAAAFLAVAEVDGAGSEARVFLAAPLDRADLEELFDEALRPCETVTWDPRAEAVVARVERRLGALVFESRDLPDRADPARTTPAVCAGIRRLGLGCLPWTRETDRLRARVAFLHRVHSADDWPDLSDDALLASLADWLGPWLDGITRRSAFARIDLMAALKALIGWRRLADLDRLAPAQMDVPSGVKVALDYEVPDGPVLAARVQQLFGLTRTPAVLDGGHPVLVHLLSPAGRPLQVTRDLAGFWKGSYAEVRKDMRGRYPKHPWPEDPTGAEATNRVKPRGQ	failed
